What was measured:
HLA-A*29:02 [1] = experiment: IEDB peptide-MHC binding, purified MHC/competitive/fluorescence; filed as Kd, often an IC50 or EC50 that approximates it; ≥ and ≤ were set here for values at or beyond the usual limits of such assays; conditions: source organism: Shigella flexneri 5 str. 8401
HLA-B*27:03 [2] = experiment: as above; conditions: source organism: Shigella flexneri 5 str. 8401
HLA-B*57:01 [3] = experiment: as above; conditions: source organism: Shigella flexneri 5 str. 8401
HLA-B*15:01 [4] = experiment: as above; conditions: source organism: Shigella flexneri 5 str. 8401
HLA-B*15:17 = experiment: as above; conditions: source organism: Shigella flexneri 5 str. 8401
HLA-A*01:01 = experiment: as above
HLA-A*02:03 = experiment: as above; conditions: source organism: Shigella flexneri 5 str. 8401
HLA-A*02:01 = experiment: as above; conditions: source organism: Shigella flexneri 5 str. 8401
HLA-B*40:01 = experiment: as above
HLA-B*58:01 = experiment: as above
HLA-B*08:01 = experiment: as above
HLA-A*03:01 = experiment: as above; conditions: source organism: Shigella flexneri 5 str. 8401
HLA-A*26:01 = experiment: as above; conditions: source organism: Shigella flexneri 5 str. 8401
HLA-B*46:01 [5] = experiment: as above; conditions: source organism: Shigella flexneri 5 str. 8401
HLA-A*30:01 = experiment: as above; conditions: source organism: Shigella flexneri 5 str. 8401
HLA-A*66:01 = experiment: as above; conditions: source organism: Shigella flexneri 5 str. 8401
HLA-B*53:01 = experiment: as above
HLA-B*51:01 [6] = experiment: as above; conditions: source organism: Shigella flexneri 5 str. 8401
HLA-A*68:02 [7] = experiment: as above; conditions: source organism: Shigella flexneri 5 str. 8401
HLA-A*11:01 = experiment: as above
HLA-A*30:02 = experiment: as above
HLA-B*07:02 = experiment: as above
HLA-B*18:01 [8] = experiment: as above; conditions: source organism: Shigella flexneri 5 str. 8401
HLA-A*02:19 = experiment: as above; conditions: source organism: Shigella flexneri 5 str. 8401
HLA-B*44:02 = experiment: as above
HLA-B*14:02 [9] = experiment: as above; conditions: source organism: Shigella flexneri 5 str. 8401
HLA-B*27:05 = experiment: as above; conditions: source organism: Shigella flexneri 5 str. 8401
HLA-A*29:02 [10] = experiment: IEDB peptide-MHC binding, purified MHC/direct/fluorescence; filed as Kd, often an IC50 or EC50 that approximates it; ≥ and ≤ were set here for values at or beyond the usual limits of such assays; conditions: source organism: Burkholderia mallei ATCC 23344
HLA-B*27:03 [11] = experiment: as above; conditions: source organism: Burkholderia mallei ATCC 23344
HLA-B*57:01 [12] = experiment: as above; conditions: source organism: Burkholderia mallei ATCC 23344
HLA-B*15:01 [13] = experiment: as above; conditions: source organism: Burkholderia mallei ATCC 23344
HLA-A*24:03 = experiment: as above; conditions: source organism: Burkholderia mallei ATCC 23344
HLA-B*46:01 [14] = experiment: as above; conditions: source organism: Burkholderia mallei ATCC 23344
HLA-B*51:01 [15] = experiment: as above; conditions: source organism: Burkholderia mallei ATCC 23344
HLA-A*68:02 [16] = experiment: as above; conditions: source organism: Burkholderia mallei ATCC 23344
HLA-B*18:01 [17] = experiment: as above; conditions: source organism: Burkholderia mallei ATCC 23344
HLA-B*39:01 = experiment: as above; conditions: source organism: Burkholderia mallei ATCC 23344
HLA-B*14:02 [18] = experiment: as above; conditions: source organism: Burkholderia mallei ATCC 23344
HLA-B*83:01 = experiment: IEDB peptide-MHC binding, purified MHC/competitive/fluorescence; filed as Kd, often an IC50 or EC50 that approximates it; ≥ and ≤ were set here for values at or beyond the usual limits of such assays; conditions: source organism: Burkholderia mallei SAVP1
HLA-B*45:06 = experiment: as above; conditions: source organism: Burkholderia mallei SAVP1
HLA-B*15:42 = experiment: as above; conditions: source organism: Burkholderia mallei SAVP1
[19] = source organism: Shigella flexneri 5 str. 8401
[20] = source organism: Burkholderia mallei SAVP1

FGALFMWLL
Kd (HLA-A*29:02 [1]): 0.138 µM | Kd (HLA-B*27:03 [2]): ≥ 20 µM | Kd (HLA-B*57:01 [3]): ≥ 20 µM | Kd (HLA-B*15:01 [4]): ≥ 20 µM | Kd (HLA-B*15:17): ≥ 20 µM | Kd (HLA-A*01:01; [19]): ≥ 5 µM | Kd (HLA-A*02:03): ≥ 20 µM | Kd (HLA-A*02:01): ≥ 20 µM | Kd (HLA-B*40:01; [19]): ≥ 5 µM | Kd (HLA-B*58:01; [19]): ≥ 5 µM | Kd (HLA-B*08:01; [19]): ≥ 5 µM | Kd (HLA-A*03:01): ≥ 20 µM | Kd (HLA-A*26:01): ≥ 20 µM | Kd (HLA-B*46:01 [5]): ≥ 20 µM | Kd (HLA-A*30:01): ≥ 5 µM | Kd (HLA-A*66:01): ≥ 5 µM | Kd (HLA-B*53:01; [19]): ≥ 5 µM | Kd (HLA-B*51:01 [6]): ≥ 20 µM | Kd (HLA-A*68:02 [7]): 0.741 µM | Kd (HLA-A*11:01; [19]): ≥ 5 µM | Kd (HLA-A*30:02; [19]): ≥ 5 µM | Kd (HLA-B*07:02; [19]): ≥ 5 µM | Kd (HLA-B*18:01 [8]): ≥ 20 µM | Kd (HLA-A*02:19): ≥ 20 µM | Kd (HLA-B*44:02; [19]): ≥ 5 µM | Kd (HLA-B*14:02 [9]): ≥ 5 µM | Kd (HLA-B*27:05): ≥ 5 µM

MVFGRFSFA
Kd (HLA-A*29:02 [10]): 0.192 µM | Kd (HLA-B*27:03 [11]): ≥ 20 µM | Kd (HLA-B*57:01 [12]): ≥ 20 µM | Kd (HLA-B*15:01 [13]): ≥ 20 µM | Kd (HLA-A*24:03): ≥ 20 µM | Kd (HLA-B*46:01 [14]): ≥ 20 µM | Kd (HLA-B*51:01 [15]): ≥ 20 µM | Kd (HLA-A*68:02 [16]): ≤ 0.001 µM | Kd (HLA-B*18:01 [17]): ≥ 20 µM | Kd (HLA-B*39:01): ≥ 20 µM | Kd (HLA-B*14:02 [18]): 1.18 µM | Kd (HLA-B*83:01): ≥ 5 µM | Kd (HLA-A*01:01; [20]): ≥ 5 µM | Kd (HLA-B*40:01; [20]): ≥ 5 µM | Kd (HLA-B*58:01; [20]): ≥ 5 µM | Kd (HLA-B*08:01; [20]): ≥ 5 µM | Kd (HLA-B*53:01; [20]): ≥ 5 µM | Kd (HLA-A*11:01; [20]): 1.5 µM | Kd (HLA-B*45:06): ≥ 5 µM | Kd (HLA-A*30:02; [20]): ≥ 20 µM | Kd (HLA-B*07:02; [20]): ≥ 5 µM | Kd (HLA-B*15:42): ≥ 5 µM | Kd (HLA-B*44:02; [20]): ≥ 5 µM

Source: the Immune Epitope Database (IEDB)
